From patent publication US20190169308A1 come the findings set out here.

The target in this assay is human/mouse 5T4 chimera aa173-420 (human; mouse) (UniProt Q13641). The experiment in a line: flow cytometry, cells with human/mouse 5T4 chimera. (In general: A flow cytometer gives signals particle by particle.)
human/mouse 5T4 chimera aa173-420 (human; mouse), sequence (Q13641 other isoform, or with tags, fused parts or gaps mutant limits assumed, form in doubt): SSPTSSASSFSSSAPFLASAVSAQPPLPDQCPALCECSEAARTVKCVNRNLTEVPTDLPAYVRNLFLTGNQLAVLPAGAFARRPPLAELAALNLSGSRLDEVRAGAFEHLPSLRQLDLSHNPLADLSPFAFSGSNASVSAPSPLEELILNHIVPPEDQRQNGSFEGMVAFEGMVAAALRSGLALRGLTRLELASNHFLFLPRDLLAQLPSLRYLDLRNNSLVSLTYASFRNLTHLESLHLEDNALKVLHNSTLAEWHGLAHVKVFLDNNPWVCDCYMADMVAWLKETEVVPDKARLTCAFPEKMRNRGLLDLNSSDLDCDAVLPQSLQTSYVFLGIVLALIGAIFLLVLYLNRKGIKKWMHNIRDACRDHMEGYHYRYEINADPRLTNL

B1: 1206/1207 (antibody, V domains shown)
VH: EVQLLESGGGLVQPGGSLRLSCAASGFTFSGSSMSWVRQAPGKGLEWVSSIYYSGSGTYYADSVKGRFTISRDNSKNTLYLQMNSLRAEDTAVYYCARYGRNVHPYNLDYWGQGTLVTVSS
VL: DIQMTQSPSSLSASVGDRVTITCRASQSISSYLNWYQQKPGKAPKLLIYAASSLQSGVPSRFSGSGSGTDFTLTISSLQPEDFATYYCQQGYYYLPTFGQGTKLEIK
Molecule B1 displayed a normalized % positive cells of 0.3.

B2: 1212/1213 (antibody, V domains shown)
VH: EVQLLESGGGLVQPGGSLRLSCAASGFTFSSYAMSWVRQAPGKGLEWVSYISSYGGYTSYADSVKGRFTISRDNSKNTLYLQMNSLRAEDTAVYYCARYHSGVLDYWGQGTLVTVSS
VL: DIQMTQSPSSLSASVGDRVTITCRASQSISSYLNWYQQKPGKAPKLLIYAASSLQSGVPSRFSGSGSGTDFTLTISSLQPEDFATYYCQQYYYHYLLTFGQGTKLEIK
Consider B2, for which the normalized % positive cells was -0.01.
